Reference: a protein production outcome set (Wang et al. 2014)

Assay: label from the status in PepcDB records

With “MPRLPRPPGSSTLRPGAVALGRPDPGPDLNSPEGLIRAARDWLGAGDDQRARLALDRALALRPRAAEALLLRGLVDQRRGDLAAAAEWFRRAIRARKDFADAHLNLGSCLIGLGQTEEALRQFGRAVALAPGMALAHLNLAQALLDQGDLGRARSAIDRARALAPDALPILLARARILAAQEDYEAAGAAWEDCVARAPGDVLVLNDAANFLLEDNRVEDSLALYRRAVALAPTSQEVRKNLIRALMTTGALDEAEAEAVGWLGTQGEDPRFRRLLGDVLVRAGRFPEARSAYVAAWDALPEDDNIPLGLTATGKMKSGEALGDRILERWTAQGAAGVVSADIAYAAGKVLDDRQDYDGAFAAFAQANRLKAADHPFDADAHDRFVEAVSTVFTPALFERFAGLGSPSETPVLVVGLPRSGTTLVEQIIASHPQAAGAGELTHVSRFEHSLPWRVGEAGRRGYPACVAGLDGAILDRFTAHYLHELTRIGPKARRVVDKLPNNFLRLGLFALAFPKARIIHCRRDLVDTCLSLYFQSFAGGHEYRHDLVSLGRYARAYLAMMAHWRRVLPLPMLEVDYADVVADQEKASRTMLEFLGLAWDEVVLRFHKREATVATASRWQVRQPIYATSVARWRRYEQHLSPLLLSLEGKKPSKG” as the sequence, how does the protein production read?
Its protein production is “failed”.

With “MPRRFRQANARLTILSGGIPYLTNTMTLPDRFQQADAVPDDLQQLEARLAEAEDILLRDSPQAEATAREVLAGATAAGCQSLALRSRTVLGRSLAHQKRNEQATELLESVVAESRSAKMPELLVHAWLGLGLAHLNERRMARGLQAYLEALKICESLNAPELSLRVLTNLASAYAKLEQYDTAQPYLTEAHDTARQLGQPFDLMITSLNLACVCQLSGGTGAALTLIEEALRHAKTVASPRYLKSVLFHFSQLLLDLDRLSEALTYCEQGLNTDSGFGTATPQCELQVTHGEILYGLGRPAEARPALEAGLRAAQDLRLNDAEGRARRCYAQLLEDQDDYQGALAQVRALAQLEHDLREQLAAVNLQLEAERLRSETLAEKRRLKEEGRTQQRLAAQLRHDALTGLPNRLALHEALGQQVAADSAPFALLCLDLDHFKTVNHTLGQPAGDALLLYIGERVQAAVGEQGQTFRRGGNEFVVLLPAVRAAPDALTIAQTLLDTINEPLLLDGQALVVTASIGLALFPEDGRDSLTLQKNADLALHAAKQEGGQAQRYRNALSQAANERLELTQALRSGIGNGELVLHYQPIVEVRSGKTVAVEALVRWQHPRLGLLSPDRFIGLAEDNGLIVPLGRWVLNTALRQLAAWREHWPELRVSVNMAPRQLQQPGSCQEIRDALRAYALPPDALELEITEQTICDEEALEPFLPLIREGLRLAIDDFGTGYSSLSRLYRLPAQILKLDRSLIQDLSADNATDGPLVSALIAFAQRFGMQVTAEGIETAEQLHLLRQ” as the sequence, how does the protein production read?
The protein production was “failed”.

With “MPRRKTKKREEGLSAIDLANEEMGYVLSLIERTDQSLFLTGKAGTGKSTLLRHICATTHKKFVVLAPTGLAALNVGGQTLHSFFKLPLRPIPPNDPDLSTRDRRVFDVFRYTNEHKKLIRSLDLIIIDEVSMVRADVIDAIDKLLGIYRGRQERPFGGVQMLFVGDLYQLEPVVTADDADILKRFYPNPFFFSSEALRATPPVTVELTKVYRQTEQAFVQILDRIRSGRLTEQDLQDINKCVNRHYEPPKDEPVITLATKRRHVSYINERQLEQLQGDPVTLYGTIEGDFPSSSLPTEEELTLKQDAQVIFVSNDKDRRWVNGTLGIVAGFDQESETIDVCLSTGEVVTVEPCIWDNKRFSYNEQANKVEEEVLGRFVQYPLKLAWAITVHKSQGLTFDRVIIDFSEGTFAGGQAYVALSRCRSLEGMVLRAPLAGRDVIVRREIIDFYSRANDLEIINGSLLRAEAEREYAQALRLWNARHYTEAIGAFSQALARKNELDDPLFRRLLVSKLFEMEYARRREEELRRELAEQREVMRRLAKEYVLMGNDCITEAHDAHAAIRCYDKALTLYPDYVEALVRKGKTLAGLNEITTSLSTLNQAIAIAPMDFTARFTLGQVLEKFAYYEEALDAYRQADGLNSQSRSLLKRLIALCEELDEEDEANLYRIRLRKNRDQTGHK” as the sequence, how does the protein production read?
The protein production was “failed”.

For “MPRWLIQHSPNTLTPEEKSHLAQQITQAYVGFGLPAFYVQVHFIEQPAGTSFIGGEQHPNFVALTIYHLARTMTSDEQRQGFLKRIDAFLTPMFEPKGIDWEYFVTEAPRDLWKINGLAPPAAGSEEEKVWVRENRPVRF”, which protein production is on record?
The protein production was “not failed”.
